27 molecules from patent publication US20180085455A1 (ISU ABXIS, published 2018) can be followed below.

Assay [1] concerns the target T1, recombinant human ErbB3 protein (R&D systems) (human, UniProt P21860 20-643).
T1 construct: Bought recombinant protein; also called HER3
Description: BLI (Octet QK384), human ErbB3 immobilized on AR2G sensor, IgG at 12.5-50 nM. As to the method:
After activation of carboxyl groups in 20 mM of 1-ethyl-3-(3-dimethylaminopropyl)carbodiimide hydrochloride (EDC) and 40 mM of N-hydroxysulfosuccinimide (sulfo-NHS) solution on an AR2G sensor (ForteBio), 10 μg/mL of human ErbB3 protein solution diluted with 10 mM of sodium acetate (pH 4.0) (ForteBio) was added to immobilize human ErbB3 protein onto the AR2G sensor. The AR2G sensor to which the human ErbB3 protein was immobilized and was treated with 1 M of ethanolamine (ForteBio) to inactivate the remaining unreacted carboxyl groups.
(In general: In BLI a coated tip is dipped into the sample, and binding shifts an interference pattern.)

The next assay addresses ErbB3 on cancer cells (UniProt P21860 20-1342, limits assumed). As to the kind of experiment: cell-based or functional assay.

Broadly, the Kd is the concentration at which binding is half-saturated. For orientation: koff means the rate constant with which the complex falls apart. Usually kon stands for a measure of how fast the partners come together.

Residue numbers refer to the chain shown, from its start. Bounds are passed on as bounds.

B1: 442P (antibody, V domains shown)
VH: EVQLLESGGGLVQPGGSLRLSCAASGFTFSDYDMSWVRQAPGKGLEWVSSIYPDSGSTYYADSVQGRFTISRDNSKNTLYLQMNSLRAEDTAVYYCAKDLHMGPEGPFDYWGQGTLVTVSS
VL: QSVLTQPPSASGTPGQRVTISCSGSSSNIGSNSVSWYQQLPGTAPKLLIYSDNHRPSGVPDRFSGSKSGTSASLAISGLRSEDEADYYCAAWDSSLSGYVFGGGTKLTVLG
notes: IgG1 (Selexis 085 vector, CHO)
B1: in assay [1], the dissociation constant Kd worked out at 0.283 nM, the off-rate constant (koff) was determined as 0.000352 s⁻¹ and the on-rate constant (kon) turned out to be 1.25e+06 M⁻¹ s⁻¹. In addition, the “Inhibition of ErbB3 phosphorylation, IC50 (HRG-stimulated MCF7 cells)” value (from here on “Inhibition of ErbB3 phosphorylation”) in the assay with ErbB3 on cancer cells was 1.05 nM.

B2: 442M10 (antibody, V domains shown)
VH: B1 VH with Y59D, G103W
VL: QSVLTQPPSASGTPGQRVTISCSGSSSNIGSNSVSWYQQLPGTAPKLLIYADNFRPSGVPDRFSGSKSGTSASLAISGLRSEDEADYYCAAWDSSLSGYVFGGGTKLTVLG
notes: as for B1
For the molecule B2, in assay [1], the Kd was < 0.001 nM, the koff was < 1e-07 s⁻¹ and the kon amounted to 471000 M⁻¹ s⁻¹.

B3: 442M8 (antibody, V domains shown)
VH: B1 VH
VL: B2 VL with A51S, F54H, A90H, S97Y, G98V, Y99D
notes: as for B1
In the case of B3, in assay [1], the dissociation constant Kd amounted to 0.00256 nM, the koff came to 2.23e-06 s⁻¹ and the kon turned out to be 870000 M⁻¹ s⁻¹.

B4: 442S4 (antibody, V domains shown)
VH: B1 VH with Y52E, S55F, T58S, Q65R
VL: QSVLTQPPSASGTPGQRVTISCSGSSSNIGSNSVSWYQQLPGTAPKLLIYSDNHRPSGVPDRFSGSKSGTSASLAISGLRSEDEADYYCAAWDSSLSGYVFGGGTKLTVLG
notes: as for B1
For the molecule B4, in assay [1], the dissociation constant Kd came out at 0.0371 nM, the koff was 5.47e-05 s⁻¹ and the on-rate constant (kon) was 1.48e+06 M⁻¹ s⁻¹.

B5: 442M5 (antibody, V domains shown)
VH: B1 VH with S50T, Y52D, P53L, T58I
VL: B2 VL with A51S, F54H, A90H, S97W, Y99D
notes: as for B1
As for B5, in assay [1], the equilibrium dissociation constant (Kd) was < 0.001 nM, the off-rate constant (koff) is < 1e-07 s⁻¹ and the on-rate (kon) was determined as 665000 M⁻¹ s⁻¹.

B6: 442S10 (antibody, V domains shown)
VH: B1 VH with L100R, G103W
VL: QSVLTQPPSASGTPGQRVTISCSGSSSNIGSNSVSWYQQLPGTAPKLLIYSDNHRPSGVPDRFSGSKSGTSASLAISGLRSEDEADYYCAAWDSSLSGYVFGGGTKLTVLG
notes: as for B1
B6: in assay [1], the equilibrium dissociation constant (Kd) stood at 0.114 nM, the dissociation rate constant (koff) stood at 9.29e-05 s⁻¹ and the kon was found to be 814000 M⁻¹ s⁻¹.

B7: 442M11 (antibody, V domains shown)
VH: B1 VH with S50T, Y52E, S55Y, Y59L
VL: B2 VL with A51S, F54H, A90H, Y99D, V100F
notes: as for B1
With B7, in assay [1], the Kd was found to be 0.00543 nM, the koff was 8.09e-06 s⁻¹ and the on-rate (kon) was 1.49e+06 M⁻¹ s⁻¹.

B8: 442S9 (antibody, V domains shown)
VH: B1 VH with L100R, G103W
VL: B2 VL with V34G, F54H
notes: as for B1
Regarding B8, in assay [1], the dissociation constant (Kd) was found to be 0.0716 nM, the koff stood at 5.87e-05 s⁻¹ and the on-rate (kon) is 821000 M⁻¹ s⁻¹.

B9: 442S2 (antibody, V domains shown)
VH: B1 VH with Y59D
VL: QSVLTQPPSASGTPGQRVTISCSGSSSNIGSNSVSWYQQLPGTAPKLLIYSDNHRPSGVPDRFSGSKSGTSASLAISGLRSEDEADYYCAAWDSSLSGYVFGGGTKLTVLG
notes: as for B1
Consider B9, for which, in assay [1], the Kd was 0.0711 nM, the off-rate (koff) was determined as 8.28e-05 s⁻¹ and the on-rate constant (kon) amounted to 1.17e+06 M⁻¹ s⁻¹.

B10: 442M4 (antibody, V domains shown)
VH: B1 VH with S50T, Y52D, P53L, T58I
VL: B2 VL with A51S, F54H, A90V, A91G, S97Y, Y99H
notes: as for B1
Take B10: in assay [1], the Kd is < 0.001 nM, the koff was < 1e-07 s⁻¹ and the association rate constant (kon) is 573000 M⁻¹ s⁻¹.

B11: 442S6 (antibody, V domains shown)
VH: B1 VH with Y59D, L100R, G103W
VL: B2 VL with V34G, F54W
notes: as for B1
As for B11, in assay [1], the equilibrium dissociation constant (Kd) is < 0.001 nM, the koff is < 1e-07 s⁻¹ and the on-rate constant (kon) was determined as 872000 M⁻¹ s⁻¹.

B12: 442M3 (antibody, V domains shown)
VH: B1 VH with L100R, G103W
VL: B2 VL with V34G, F54W
notes: as for B1
As to B12, in assay [1], the equilibrium dissociation constant (Kd) stood at 0.0034 nM, the off-rate (koff) amounted to 2.62e-06 s⁻¹ and the kon is 771000 M⁻¹ s⁻¹.

B13: 442M7 (antibody, V domains shown)
VH: B1 VH with S50T, Y52E, G66S
VL: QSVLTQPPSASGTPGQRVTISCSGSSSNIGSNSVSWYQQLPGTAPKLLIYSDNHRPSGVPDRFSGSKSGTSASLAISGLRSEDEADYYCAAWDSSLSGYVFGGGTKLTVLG
notes: as for B1
Turning to B13, in assay [1], the dissociation constant Kd stood at 0.0291 nM, the koff turned out to be 4.55e-05 s⁻¹ and the kon turned out to be 1.56e+06 M⁻¹ s⁻¹.

B14: 472P (antibody, V domains shown)
VH: EVQLLESGGGLVQPGGSLRLSCAASGFTFSDYDMSWVRQAPGKGLEWVSGISYDGGNTYYADSVKGRFTISRDNSKNTLYLQMNSLRAEDTAVYYCARDPSWCLQDLCYYADGMDVWGQGTLVTVSS
VL: B2 VL with N53S, F54N, A90G, A91S, S94Y
notes: IgG1 (Selexis 085 vector, CHO); also called anti-ErbB3 lead antibody 472P
On to B14, for which, in assay [1], the dissociation constant Kd amounted to 0.284 nM, the koff turned out to be 0.000508 s⁻¹ and the kon came to 1.79e+06 M⁻¹ s⁻¹. The “Inhibition of ErbB3 phosphorylation” value with ErbB3 on cancer cells was 1.45 nM.

B15: 451P (antibody, V domains shown)
VH: EVQLLESGGGLVQPGGSLRLSCAASGFTFSDYDMSWVRQAPGKGLEWVSAIYYDSGSIYYADSAKGRFTISRDNSKNTLYLQMNSLRAEDTAVYYCAKDRLFVSDSTFDYWGQGTLVTVSS
VL: B2 VL with S26P, S31N, S35T, A51Y, N53S, F54H, A90G, A91S, S94A, S97N
notes: IgG1 (Selexis 085 vector, CHO); also called anti-ErbB3 lead antibody 451P
In the case of B15, in assay [1], the Kd was found to be 0.0535 nM, the koff was found to be 6.33e-05 s⁻¹ and the on-rate (kon) is 1.18e+06 M⁻¹ s⁻¹.

B16: 472S3 (antibody, V domains shown)
VH: B14 VH with D31W
VL: B2 VL with N53S, F54N, A90G, A91S, S94Y
notes: as for B1
Take B16: in assay [1], the Kd is < 0.001 nM, the koff stood at 1.43e-07 s⁻¹ and the kon turned out to be 522000 M⁻¹ s⁻¹.

B17: 451M1 (antibody, V domains shown)
VH: B15 VH with V103M
VL: B2 VL with S26P, S31N, S35T, A51Y, N53S, F54H, A90G, A91S, S94A, S97N
notes: as for B1
Consider B17, for which, in assay [1], the Kd was 0.0248 nM, the koff is 3.08e-05 s⁻¹ and the kon came out at 1.24e+06 M⁻¹ s⁻¹.

B18: 451M2 (antibody, V domains shown)
VH: B15 VH with V103A
VL: B2 VL with S26P, S31N, S35T, A51Y, N53S, F54H, A90G, A91S, S94A, S97N
notes: as for B1
On to B18, for which, in assay [1], the Kd came to 0.0126 nM, the dissociation rate constant (koff) was determined as 1.56e-05 s⁻¹ and the on-rate (kon) was 1.24e+06 M⁻¹ s⁻¹.

B19: 472S1 (antibody, V domains shown)
VH: B14 VH with D31W, S35T
VL: B2 VL with N53S, F54N, A90G, A91S, S94Y
notes: as for B1
In the case of B19, in assay [1], the dissociation constant Kd was < 0.001 nM, the koff stood at 3.33e-07 s⁻¹ and the kon is 649000 M⁻¹ s⁻¹.

B20: 472M1 (antibody, V domains shown)
VH: B14 VH with D31W, M34L
VL: B2 VL with N53S, F54N, A90G, A91S, S94Y
notes: as for B1
With B20, in assay [1], the dissociation constant (Kd) worked out at 0.0125 nM, the off-rate (koff) turned out to be 1.74e-05 s⁻¹ and the kon worked out at 1.39e+06 M⁻¹ s⁻¹. Further, in the assay with ErbB3 on cancer cells, the “Inhibition of Akt phosphorylation, IC50 (HRG-stimulated MCF7 cells)” value amounted to 0.246 nM and the “Inhibition of ErbB3 phosphorylation” value stood at 0.276 nM.

B21: 451M6 (antibody, V domains shown)
VH: B15 VH with D31H, V103E
VL: B2 VL with S26P, S31N, S35T, A51Y, N53S, F54H, A90G, A91S, S94A, S97N
notes: as for B1
For B21, in assay [1], the equilibrium dissociation constant (Kd) worked out at 0.00347 nM, the koff is 4.17e-06 s⁻¹ and the kon was 1.2e+06 M⁻¹ s⁻¹.

B22: 451M7 (antibody, V domains shown)
VH: B15 VH with D31Y, V103E
VL: B2 VL with S26P, S31N, S35T, A51Y, N53S, F54H, A90G, A91S, S94A, S97N
notes: as for B1
Take B22: in assay [1], the Kd stood at 0.00492 nM, the koff was determined as 6.63e-06 s⁻¹ and the on-rate (kon) is 1.35e+06 M⁻¹ s⁻¹.

B23: 472S2 (antibody, V domains shown)
VH: B14 VH with D31W, M34L, S35A
VL: B2 VL with N53S, F54N, A90G, A91S, S94Y
notes: as for B1
B23: in assay [1], the Kd is < 0.001 nM, the koff is < 1e-07 s⁻¹ and the kon was 1.07e+06 M⁻¹ s⁻¹. Also, in the assay with ErbB3 on cancer cells, the “Inhibition of Akt phosphorylation, IC50 (HRG-stimulated MCF7 cells)” value is 0.195 nM and the “Inhibition of ErbB3 phosphorylation” value came out at 0.148 nM.

B24: 451M3 (antibody, V domains shown)
VH: B15 VH with D31H, V103A
VL: B2 VL with S26P, S31N, S35T, A51Y, N53S, F54H, A90G, A91S, S94A, S97N
notes: as for B1
With B24, in assay [1], the Kd was < 0.001 nM, the dissociation rate constant (koff) worked out at 2.3e-07 s⁻¹ and the association rate constant (kon) is 1.87e+06 M⁻¹ s⁻¹.

B25: 451M5 (antibody, V domains shown)
VH: B15 VH with V103E
VL: B2 VL with S26P, S31N, S35T, A51Y, N53S, F54H, A90G, A91S, S94A, S97N
notes: as for B1
Consider B25, for which, in assay [1], the Kd was 0.0217 nM, the koff stood at 3.29e-05 s⁻¹ and the kon came out at 1.52e+06 M⁻¹ s⁻¹.

B26: 451M4 (antibody, V domains shown)
VH: B15 VH with D31Y, V103A
VL: B2 VL with S26P, S31N, S35T, A51Y, N53S, F54H, A90G, A91S, S94A, S97N
notes: as for B1
Consider B26, for which, in assay [1], the Kd was determined as 0.00612 nM, the koff was 1.23e-05 s⁻¹ and the on-rate (kon) was 2.01e+06 M⁻¹ s⁻¹.

B27: 472S4 (antibody, V domains shown)
VH: B14 VH with D31W, M34I, S35A
VL: B2 VL with N53S, F54N, A90G, A91S, S94Y
notes: as for B1
Consider B27, for which, in assay [1], the dissociation constant Kd turned out to be 0.00941 nM, the off-rate constant (koff) turned out to be 1.09e-05 s⁻¹ and the kon was 1.15e+06 M⁻¹ s⁻¹.
